Results published in patent US20160230226A1.

Target: IL13Rα2 (human) (UniProt Q14627)
Assay: cell-based or functional assay

Sequence of UniProt Q14627 (Q14627 27-380): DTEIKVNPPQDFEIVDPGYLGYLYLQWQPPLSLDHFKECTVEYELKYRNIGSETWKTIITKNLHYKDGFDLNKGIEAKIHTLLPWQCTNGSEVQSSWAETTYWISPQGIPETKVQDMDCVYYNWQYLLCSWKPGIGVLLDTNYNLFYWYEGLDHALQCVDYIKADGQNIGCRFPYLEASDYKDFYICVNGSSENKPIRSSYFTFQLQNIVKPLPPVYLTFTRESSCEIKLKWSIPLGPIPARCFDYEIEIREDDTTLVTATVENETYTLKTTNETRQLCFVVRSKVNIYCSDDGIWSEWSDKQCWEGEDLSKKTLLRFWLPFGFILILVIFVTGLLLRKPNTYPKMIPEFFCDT

IL-13 concentration needed for the same CCL26 or periostin gene induction in IMR90 cells pre-stimulated with TNFα (elevated IL13Rα2) versus not pre-stimulated: 10 fold
Substance: IL-13 (from UniProt P35225 35-146) (ligand)
